The values that follow come from paper PMC6051491, “Dynamic structure mediates halophilic adaptation of a DNA polymerase from the deep-sea brines of the Red Sea”.

Assay in all cases: SPR; 100 mM NaCl; SPR (Biacore T100, SA chip, steady state): 20 mM Tris-HCl pH 8.8, 10 mM (NH4)2SO4, 0.1% Triton X-100, 100 or 300 mM NaCl; temperature not stated
One data set has as its target T1, KODBR3exo Pol (Thermococcus kodakarensis / BR3 chimera, UniProt P77933 1-130+A0A133VA65:160-367+329-406+767-851+1389-1671, internal_change).
T1 sequence: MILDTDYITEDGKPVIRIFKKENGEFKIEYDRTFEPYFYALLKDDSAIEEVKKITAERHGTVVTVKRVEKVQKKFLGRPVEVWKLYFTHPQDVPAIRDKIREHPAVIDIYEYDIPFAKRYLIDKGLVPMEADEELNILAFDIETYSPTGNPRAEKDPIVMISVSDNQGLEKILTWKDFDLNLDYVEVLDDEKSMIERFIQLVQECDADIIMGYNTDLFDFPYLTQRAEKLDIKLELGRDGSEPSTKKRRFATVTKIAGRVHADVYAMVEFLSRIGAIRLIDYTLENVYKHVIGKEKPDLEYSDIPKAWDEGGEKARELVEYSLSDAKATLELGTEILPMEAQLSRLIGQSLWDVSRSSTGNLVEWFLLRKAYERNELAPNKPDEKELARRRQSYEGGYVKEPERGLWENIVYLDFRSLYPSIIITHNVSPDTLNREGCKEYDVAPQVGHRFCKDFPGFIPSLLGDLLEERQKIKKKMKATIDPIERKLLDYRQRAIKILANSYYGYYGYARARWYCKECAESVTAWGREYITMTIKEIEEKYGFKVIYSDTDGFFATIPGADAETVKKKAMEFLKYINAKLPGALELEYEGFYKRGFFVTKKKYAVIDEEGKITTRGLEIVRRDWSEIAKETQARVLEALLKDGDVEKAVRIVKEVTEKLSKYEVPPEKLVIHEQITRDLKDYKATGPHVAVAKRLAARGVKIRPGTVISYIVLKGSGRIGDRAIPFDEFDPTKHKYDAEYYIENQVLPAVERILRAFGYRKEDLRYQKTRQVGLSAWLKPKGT
Particulars: protein: recombinant; label: 3' biotin on template (immobilized); primer pairs with template 3' end; 5' overhang 23 nt of template.

The target of the next data set is T2, KODBR3thumb Pol (Thermococcus kodakarensis / BR3 chimera, UniProt P77933 1-406+767-851+1389-1479+A0A133VA65:621-805, internal_change).
T2 sequence: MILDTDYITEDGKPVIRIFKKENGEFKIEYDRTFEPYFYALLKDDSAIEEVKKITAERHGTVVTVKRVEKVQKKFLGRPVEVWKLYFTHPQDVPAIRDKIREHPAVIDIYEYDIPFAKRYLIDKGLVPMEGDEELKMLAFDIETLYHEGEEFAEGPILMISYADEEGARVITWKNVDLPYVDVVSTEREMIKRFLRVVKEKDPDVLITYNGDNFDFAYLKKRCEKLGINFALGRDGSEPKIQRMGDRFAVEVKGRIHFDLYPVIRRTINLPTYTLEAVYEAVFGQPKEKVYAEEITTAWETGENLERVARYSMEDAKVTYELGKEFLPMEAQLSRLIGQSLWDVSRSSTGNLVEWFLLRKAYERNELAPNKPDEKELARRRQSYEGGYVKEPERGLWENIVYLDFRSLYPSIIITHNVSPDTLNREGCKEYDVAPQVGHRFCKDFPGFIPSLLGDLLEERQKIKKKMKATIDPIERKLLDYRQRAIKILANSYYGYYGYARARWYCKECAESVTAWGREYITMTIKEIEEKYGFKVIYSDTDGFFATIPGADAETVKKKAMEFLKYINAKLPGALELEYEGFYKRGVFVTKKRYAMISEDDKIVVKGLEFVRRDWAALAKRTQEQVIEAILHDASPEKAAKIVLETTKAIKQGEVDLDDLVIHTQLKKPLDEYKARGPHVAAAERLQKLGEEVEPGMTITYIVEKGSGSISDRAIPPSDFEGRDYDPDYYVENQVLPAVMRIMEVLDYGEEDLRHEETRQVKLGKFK
Conditions: protein: recombinant; label: 3' biotin on template (immobilized); primer pairs with template 3' end; 5' overhang 23 nt of template.

The next data set concerns the target T3, KOD Pol WT (Thermococcus kodakarensis, UniProt P77933 1-406+767-851+1389-1671, internal_change).
T3 sequence: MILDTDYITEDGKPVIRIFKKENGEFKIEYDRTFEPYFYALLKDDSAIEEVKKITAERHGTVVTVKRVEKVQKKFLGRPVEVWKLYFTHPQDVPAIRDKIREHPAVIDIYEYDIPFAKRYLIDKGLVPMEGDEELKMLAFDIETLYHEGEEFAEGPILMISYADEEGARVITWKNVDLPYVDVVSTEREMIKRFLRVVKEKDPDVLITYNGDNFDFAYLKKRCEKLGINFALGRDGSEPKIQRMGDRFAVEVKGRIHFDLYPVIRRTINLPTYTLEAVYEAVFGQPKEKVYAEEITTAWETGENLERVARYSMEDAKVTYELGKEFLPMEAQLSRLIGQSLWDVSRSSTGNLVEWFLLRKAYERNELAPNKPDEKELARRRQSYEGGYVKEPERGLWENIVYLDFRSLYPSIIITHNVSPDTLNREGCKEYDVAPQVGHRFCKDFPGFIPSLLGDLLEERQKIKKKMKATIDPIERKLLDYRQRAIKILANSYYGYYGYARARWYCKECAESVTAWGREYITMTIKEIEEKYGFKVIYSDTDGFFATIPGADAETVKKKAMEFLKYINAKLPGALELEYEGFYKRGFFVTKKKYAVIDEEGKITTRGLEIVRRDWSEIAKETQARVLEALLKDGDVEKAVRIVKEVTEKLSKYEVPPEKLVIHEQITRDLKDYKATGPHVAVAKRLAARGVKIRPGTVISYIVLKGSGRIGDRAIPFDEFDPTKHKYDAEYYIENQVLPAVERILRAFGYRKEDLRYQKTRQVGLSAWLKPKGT
Conditions: protein: recombinant, tags: N-terminal His.

By Kd is commonly meant the constant that tells how readily two partners part at equilibrium.

B1: primer/template (mixed)
DNA 1: GAGGTGGCGTCGGGTGGACGGGTGGATTGAAATTTAGGCTGGCAC
DNA 2: GTGCCAGCCTAAATTTCAATCC
For B1, the Kd in the data set with KODBR3exo Pol was 0.0065 µM; in the data set with KODBR3thumb Pol it was 0.0125 µM; in the data set with KOD Pol WT (label: 3' biotin on template (immobilized), primer pairs with template 3' end, 5' overhang 23 nt of template), 0.0035 µM.

B2: dsDNA (dsDNA)
DNA 1: GAGGTGGCGTCGGGTGGACGGGTGGATTGAAATTTAGGCTGGCAC
DNA 2: GTGCCAGCCTAAATTTCAATCCACCCGTCCACCCGACGCCACCTC
As for B2, in the data set with KOD Pol WT (label: 3' biotin on strand 1 (immobilized), blunt), the Kd turned out to be 0.239 µM.
Turning to TTTTTTTTTTTTTTTTTTTTTTTTTTTTTTTTTTTTTTTT (ssDNA) [ssDNA], the dissociation constant (Kd) in the data set with KOD Pol WT (label: 5' biotin (immobilized)) came to 0.0328 µM.
